Measured values reported in PMC3090473 (Methods (San Diego, Calif.), 2010).

Biological target: the molecule itself
Assay: AUC

B1: Un-tagged Gal3 protein (natural protein, Saccharomyces cerevisiae, UniProt P13045 1-520, looked up)
chain: MNTNVPIFSSPVRDLPRSFEQKHLAVVDAFFQTYHVKPDFIARSPGRVNLIGEHIDYCDFSVLPLAIDVDMLCAVKILDEKNPSITLTNADPKFAQRKFDLPLDGSYMAIDPSVSEWSNYFKCGLHVAHSYLKKIAPERFNNTPLVGAQIFCQSDIPTGGGLSSAFTCAAALATIRANMGKNFDISKKDLTRITAVAEHYVGVNNGGMDQATSVYGEEDHALYVEFRPKLKATPFKFPQLKNHEISFVIANTLVKSNKFETAPTNYNLRVIEVTVAANALATRYSVALPSHKDNSNSERGNLRDFMDAYYARYENQAQPWNGDIGTGIERLLKMLQLVEESFSRKKSGFTVHEASTALNCSREEFTRDYLTTFPVRFQVLKLYQRAKHVYSESLRVLKALKMMTSATFHTDEDFFTDFGRLMNESQASCDKLYECSCIETNQICSIALANGSFGSRLTGAGWGGCTIHLVPSGANGNVEQVRKALIEKFYNVRYPDLTDEELKDAIIVSKPALGTCLYEQ
B1: binds.

B2: Un-tagged Gal80 protein (natural protein, Saccharomyces cerevisiae, UniProt P04387 1-435, looked up)
chain: MDYNKRSSVSTVPNAAPIRVGFVGLNAAKGWAIKTHYPAILQLSSQFQITALYSPKIETSIATIQRLKLSNATAFPTLESFASSSTIDMIVIAIQVASHYEVVMPLLEFSKNNPNLKYLFVEWALACSLDQAESIYKAAAERGVQTIISLQGRKSPYILRAKELISQGYIGDINSIEIAGNGGWYGYERPVKSPKYIYEIGNGVDLVTTTFGHTIDILQYMTSSYFSRINAMVFNNIPEQELIDERGNRLGQRVPKTVPDHLLFQGTLLNGNVPVSCSFKGGKPTKKFTKNLVIDIHGTKGDLKLEGDAGFAEISNLVLYYSGTRANDFPLANGQQAPLDPGYDAGKEIMEVYHLRNYNAIVGNIHRLYQSISDFHFNTKKIPELPSQFVMQGFDFEGFPTLMDALILHRLIESVYKSNMMGSTLNVSNISHYSL
B2: binds.
